Measurements taken from publication PMC11758000.

Molecular target: FGFR3-TACC3 RT112 (fibroblast growth factor receptor 3 fused with transforming acidic coiled-coil-containing protein 3), 5F1Y variant, in SMA lipid particles
Experiment: mass photometry; RT112-SMALPs at 500 nM incubated on ice for 30 min with FGF1 at a 10x molar ratio, drop dilution into 50 mM HEPES, 500 mM NaCl, 0.5% v/v glycerol, 1 mM TCEP, pH 7.9, room temperature; compared with ligand-free RT112

## FGFR3-TACC3 RT112 (fibroblast growth factor receptor 3 fused with transforming acidic coiled-coil-containing protein 3), 5F1Y variant, in SMA lipid particles
  stoichiometry N: 2
